The target in the test is T1, recombinant wild-type RBD-Fc (Sino Biological, 40,592-V02H) (SARS-CoV-2, UniProt P0DTC2).
T1 construct: also called Fc-tagged SARS-CoV-2 RBD; source: bought: Sino Biological
Nature of the test: BLI. The settings on record: both partners purified.

B1: sdAb39 (VHH)
VHH: EVQLVESGGGLVQPGGSLRLSCAASGNTSTRHPMSWVRQAPGKGLELVASIGRGEITYYADSVKGRFTISRDNSKNTLYLQMNSLRAEDTAVYYCAAFVDFLSRHNSRRPYPHGYWGQGTLVTVSS
As for B1, the Kd amounted to 56 nM.
